In assay [1] the target is T1, PACAP38 (Pituitary Adenylate Cyclase-Activating Polypeptide, 38 amino acids) (human, not fully specified; the C-terminal lysine is amidated).
T1 construct: In the HTRF and PC-12 cell assays the peptide was N-terminally or C-terminally biotinylated; unlabelled in SPR; also called human PACAP38; huPACAP (1-38)
T1 peptide: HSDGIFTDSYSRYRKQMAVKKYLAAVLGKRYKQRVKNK
Kind of assay: SPR (ProteOn XPR36), antibody amine-coupled, peptide analyte, 1:1 Langmuir fit. The protocol: (§1) Binding affinities of monoclonal antibodies for human PACAP were estimated using SPR on the PROTEON™ XPR36 (Bio-Rad, Hercules, CA). Antibody was immobilized to the surface of general amine coupling (“GLC” or “GLM”) Chips (Bio-Rad, Hercules, CA). […] Antigen (ranging from 1.23 nM to 100 nM) was typically run sequentially with association times of 2-4 minutes and dissociation times of 3-120 minutes grouped with the PROTEON™ Manager Software (v3.1.0.6 (Bio-Rad, Hercules, CA)) and fitted using a 1:1 Langmuir binding model. Surfaces were regenerated between analyte queries using 0.85% Phosphoric Acid.

The target in assay [2] is T2, PACAP27 (Pituitary Adenylate Cyclase-Activating Polypeptide, 27 amino acids) (human, the C-terminal leucine is amidated).
T2 construct: also called human PACAP27
T2 peptide: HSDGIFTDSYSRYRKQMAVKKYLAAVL
Described as above. The protocol: as §1

The target in assay [3] is T1, PACAP38 (Pituitary Adenylate …). Kind of assay: cell surface binding assay (DELFIA TRF): antibody pre-incubated with PACAP38, added to PAC1-R-expressing PC-12 cells, detected with Eu anti-human IgG; the antibody is held on the cells through cell-bound PACAP38.
For assay [4] the target is unchanged. Kind of assay: cell-based or functional assay.
In assay [5] the target is T2, PACAP27 (Pituitary Adenylate …). Kind of assay: cell-based or functional assay.
Assay [6] concerns the target T1, PACAP38 (Pituitary Adenylate …). Kind of assay: cell-based or functional assay.
Assay [7] shares this target. Kind of assay: cell-based or functional assay.
Assay [8] has the same target. Kind of assay: HTRF binding assay, antibody dilution series on 35 nM biotinylated PACAP38. The method, then:
In parallel, 10 μl of an antibody dilution series (highest final concentration of 100 nM) were incubated with 10 μl of N-terminal or C-terminal biotinylated PACAP38 (35 nM final) alone, or in combination with either PACAP27 (350 nM final) or VIP (350 nM final), i.e., 10× PACAP27 or 10× VIP, respectively, in a HTRF plate. 20 μl of Eu³⁺ cryptate labeled anti-hu Fc donor and 20 μl of d2-labeled streptavidin acceptor were added to each well and incubated for 1 hour at room temperature. Fluorescence was measured at 620 and 665 nm with a delay of 300 usec.
EC₅₀ values, i.e. the concentration of an antibody that yields a response halfway between the baseline and the maximum value within a specified time period, were computed for each antibody based upon their binding curves and are shown in Table 1 below. […] A humanized form of antibody Ab1 identified by an appended “.H”, i.e., Ab1.H also bound PACAP38 with high affinity.
Background: In TR-FRET formats the signal depends on donor and acceptor labels being close together.

For assay [9] the target is unchanged. Kind of assay: inhibition of 30 nM biotinylated PACAP38 binding to PAC1-R-expressing PC-12 cells, Eu-streptavidin TRF. The method, then:
To identify antibodies that block PACAP38 binding to PAC1-R-expressing cells, adherent PC-12 cells (ATCC, Manassas, VA) expressing PAC1-R were used in a Europium-based PAC1-R-expressing cells binding assay. Antibody solutions were incubated with N-terminal biotinylated PACAP38 at 10× the final concentration (100 nM or 30 nM) for 1 hr, then added to PC-12 cells that were plated 24 hrs prior in black clear bottom 96 well plates (COSTAR™, Corning Incorporated, Corning, NY) and further incubated for 1 hr at room temperature. After three washes, the cells were incubated with 20 μl Europium-labeled streptavidin (PerkinElmer, Waltham, MA) for 1 hr at room temperature. Cells were washed three times, then 20 μl DELFIA® Enhancement solution (PerkinElmer, Waltham, MA) was added to each well and incubated for 15 minutes with gentle shaking. Plates were read (Time Resolved Fluorescence (“TRF”)) on SPECTRAMAX® (Molecular Devices, Sunnyvale, CA) plate reader.
FIGS. 14A-14H are representative of the inhibition curves obtained by this method (results are shown for Ab10, Ab20, Ab21, Ab1.H, Ab10.H, Ab21.H, Ab22, and Ab23, respectively) wherein the PAC1-R expressing cells were PC-12 cells.

The target of assay [10] is T3, VIP (Vasoactive Intestinal Peptide) (human).
T3 construct: also called human VIP
T3 peptide: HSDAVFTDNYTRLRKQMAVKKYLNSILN
Kind of assay: SPR (ProteOn XPR36), antibody amine-coupled, peptide analyte, 1:1 Langmuir fit; SPR, direct binding of VIP to the antibody; weak, KD 3.1E-07 M.

Assay [11] has as its target T3, VIP (Vasoactive Intestinal Peptide). Kind of assay: SPR (ProteOn XPR36), antibody amine-coupled, peptide analyte, 1:1 Langmuir fit.
The target of assay [12] is T2, PACAP27 (Pituitary Adenylate …). Kind of assay: inhibition of 0.1 nM 125I-PACAP27 binding to membranes with human PAC1-R long isoform, filter binding. The protocol: To identify antibodies that block PACAP27 binding to PAC1-R, antibodies at an initial concentration of 30 nM were diluted in incubation buffer (50 mM Hepes pH 7.4, 1 mM CaCl₂, 5 mM MgCl₂, 0.2% BSA) and serial 1:3 dilutions were performed. Antibody dilutions (30 nM, 10 nM, 3 nM, 1 nM, 0.3 nM, 0.1 nM, 0.03 nM, 0.01 nM, 0.003 nM and 0.001 nM) were then mixed and pre-incubated at 25° C. for 30 minutes with 0.1 nM of ¹²⁵I-labelled PACAP27 in incubation buffer. The antibody: ¹²⁵I-labelled PACAP27 mixture was then added to 0.5 μg aliquots of cell membranes derived from Chem-1 cells expressing human recombinant PAC1-R long isoform in incubation buffer. The mixture was then incubated for 1 hour at 25° C. Following incubation, the samples were filtered and washed. Afterward, the filters were counted to quantitate ¹²⁵I-labelled PACAP27. As an experimental control, non-specific binding to the cell membranes was estimated using 0.1 μM of […] PACAP27.

A word on the Kd: it is the constant that tells how readily two partners part at equilibrium. The term koff denotes the first-order rate constant of dissociation. One may read the EC50 (read off the curve) as the concentration that produces a half-maximal response. The low end stands for greater potency, the high end for weaker potency. Broadly, the EC50 is the concentration that produces a half-maximal response. What is called kon is a measure of how fast the partners come together. As a reminder, the IC50 is the midpoint of a concentration-inhibition curve. A lower IC50 goes with greater potency.

B1: Ab1.H (antibody, V domains shown)
VH: EVQLVESGGGLVQPGGSLRLSCAASGFTVSSAVMNWVRQAPGKGLEWIGSIVASGTTYYASSANGRFTISRDNSKNTLYLQMNSLRAEDTAVYYCARGGGEFFIWGQGTLVTVSS
VL: DIQMTQSPSTLSASVGDRVTITCQSSESVYSNYLSWYQQKPGKAPKFLIYQASNLASGVPSRFSGSGSGTEFTLTISSLQPDDFATYYCAGGYSENIVGFGGGTKVEIKR
On to B1, for which, in [1], binding was characterised by a dissociation constant (Kd) of 0.021 nM and the off-rate constant (koff) was 1e-05 s⁻¹. In assay [2], this molecule came in with a Kd of 0.013 nM and a koff of 1e-05 s⁻¹. In addition, in assay [3], the “EC50 (read off the curve)” value is about 2 nM.

B2: Ab21 (antibody, human IgG1, kappa, N297A, V domains shown)
VH: QSVEESGGRLVTPGTPLTLTCTVSGIDLSSYYMTWVRQAPGKGLEWVGFIDAGGSAYYATWAKGRFTISKASTTVDLKITSPTTEDTATYFCARDLDLWGPGTLVTVSS
VL: AAVLTQTPSPVSAAVGGTVSISCKSSESVYGDYLAWFQQKPGQPPKQLIYDASTLASGVPSRFKGSGSGTQFTLTISGVQCDDAATYYCAGGYVSAGVAFGGGTEVVVKR
notes: Full-length anti-PACAP antibody; rabbit/human chimeric
Turning to B2, in assay [4], the “Inhibition of 0.1 nM PACAP38-induced PAC1-R mediated cAMP increase IC50 (pM)” value was 239 pM. Also, in assay [5], the “Inhibition of 0.1 nM PACAP27-induced PAC1-R mediated cAMP increase IC50 (pM)” value was 140 pM. Further, the “Inhibition of 5 nM PACAP38-induced human VPAC1-R mediated cAMP increase IC50 (pM)” value in assay [6] stood at 2850 pM. The “Inhibition of 1 nM PACAP38-induced human VPAC2-R mediated cAMP increase IC50 (pM)” value in assay [7] was determined as 5220 pM. Also, the half-maximal effective concentration (EC50) in assay [8] was 0.84 nM. In assay [1], this molecule gave a dissociation constant Kd of at most 0.027 nM, a koff of at most 1e-05 s⁻¹ and a kon of 370000 M⁻¹ s⁻¹. In assay [2], this molecule returned a Kd of at most 0.013 nM, a koff of at most 1e-05 s⁻¹ and a kon of 790000 M⁻¹ s⁻¹. Moreover, the half-inhibitory concentration (IC50) in [9] worked out at 20.3 nM. In [10], binding was put at a Kd of 310 nM, the koff came out at 0.00054 s⁻¹ and the kon came to 1700 M⁻¹ s⁻¹.

B3: Ab21.H (antibody, human IgG1, kappa, N297A)
heavy: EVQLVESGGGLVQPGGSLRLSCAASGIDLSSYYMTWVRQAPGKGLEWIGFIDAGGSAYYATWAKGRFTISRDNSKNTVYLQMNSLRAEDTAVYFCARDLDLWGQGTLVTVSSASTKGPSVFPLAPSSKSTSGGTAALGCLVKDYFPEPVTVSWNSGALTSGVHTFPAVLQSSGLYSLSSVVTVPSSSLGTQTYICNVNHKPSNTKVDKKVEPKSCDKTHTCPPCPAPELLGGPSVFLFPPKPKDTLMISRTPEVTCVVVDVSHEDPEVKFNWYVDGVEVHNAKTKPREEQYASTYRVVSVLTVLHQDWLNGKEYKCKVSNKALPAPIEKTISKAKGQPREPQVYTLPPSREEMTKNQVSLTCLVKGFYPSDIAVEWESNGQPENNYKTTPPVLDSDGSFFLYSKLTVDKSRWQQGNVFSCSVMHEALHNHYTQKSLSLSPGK
light: DAQLTQSPSTLSASVGDRVTITCKSSESVYGDYLAWFQQKPGKAPKQLIYDASTLASGVPSRFSGSGSGTEFTLTISSLQPDDFATYYCAGGYVSAGVAFGGGTKVEIKRTVAAPSVFIFPPSDEQLKSGTASVVCLLNNFYPREAKVQWKVDNALQSGNSQESVTEQDSKDSTYSLSSTLTLSKADYEKHKVYACEVTHQGLSSPVTKSFNRGEC
notes: Full-length humanized variant of Ab21
For the molecule B3, in [4], the “Inhibition of 0.1 nM PACAP38-induced PAC1-R mediated cAMP increase IC50 (pM)” value worked out at 246 pM. The “Inhibition of 0.1 nM PACAP27-induced PAC1-R mediated cAMP increase IC50 (pM)” value in assay [5] was determined as 204 pM. Also, in assay [6], the “Inhibition of 5 nM PACAP38-induced human VPAC1-R mediated cAMP increase IC50 (pM)” value was determined as 2100 pM. Further, the “Inhibition of 1 nM PACAP38-induced human VPAC2-R mediated cAMP increase IC50 (pM)” value in assay [7] worked out at 1510 pM. Further, the figures for the dissociation constant Kd in assay [11], in assay [1] and in [2] were 440 nM, at most 0.021 nM and at most 0.016 nM, respectively. The koff was 0.059 s⁻¹ in assay [11], at most 1e-05 s⁻¹ in [1] and at most 1e-05 s⁻¹ in assay [2]. The kon in [11] was 140000 M⁻¹ s⁻¹; in [1], 480000 M⁻¹ s⁻¹; in [2], 630000 M⁻¹ s⁻¹. For the same molecule, the IC50 in assay [12] was 0.39 nM; in assay [9] it was 12.7 nM.

The values above are taken from patent publication US20250009876A1 (H LUNDBECK A S, published 2025).
